Reference: paper PMC9218516, “SifR is an Rrf2-family quinone sensor associated with catechol iron uptake in Streptococcus pneumoniae D39” (The Journal of Biological Chemistry, 2022)

Experiments:
SifR (SpSifR, SPD_1448) = biological target: T1, SifR (SpSifR, SPD_1448) (Streptococcus pneumoniae, UniProt A0A0H2ZNG7); assay: LC-ESI-MS and tandem LC-MS/MS adduct; fluorescence anisotropy DNA release; assay type: binding; details: covalent at C102, slower than BQ, mainly monoadduct; 20-fold excess, 1 h, pH 7.5
T1 construct: pHis.parallel1, E. coli BL21(DE3); His6 tag removed with TEV protease; homodimer; about 16 kDa protomer (BQ2-SifR expected 16,227 Da)

YhdA (SpYhdA, SPD_1375) = biological target: T2, YhdA (SpYhdA, SPD_1375) (Streptococcus pneumoniae, UniProt A0A0H2ZRU6); assay: ferric reductase, ferrozine capture at […] nm; assay type: biochemical; details: 10 uM FMN, 100 uM Fe(III)-NTA, 100 uM NADH or NADPH, pH 7.5, 25 C
T2 construct: pHis.parallel1, E. coli BL21(DE3); His6 tag removed with TEV protease

CatE (SpCatE, SPD_0072) [1] = biological target: T3, CatE (SpCatE, SPD_0072) (Streptococcus pneumoniae, UniProt A0A0H2ZQ49); assay: UV-Vis and MS of ring-cleavage product; assay type: biochemical; details: 5 uM Fe(II)-CatE, 100 uM substrate, ambient O2, pH 7.4, room temperature
T3 construct: pHis.parallel1, E. coli BL21(DE3); His6 tag removed with TEV protease; Fe(II)-reconstituted

CatE (SpCatE, SPD_0072) [2] = biological target: T3, CatE (SpCatE, SPD_0072); assay: UV-Vis at […] nm and MS of ring-cleavage product; assay type: biochemical; details: 5 uM Fe(II)-CatE, 100 uM substrate, ambient O2, pH 7.4, room temperature
[3] = biological target: Streptococcus pneumoniae SifR (streptococcal IscR-like family transcriptional repressor), WT (Streptococcus pneumoniae D39); assay: SEC
[4] = biological target: Streptococcus pneumoniae SifR C84S (Streptococcus pneumoniae D39); assay: SEC
[5] = biological target: Streptococcus pneumoniae SifR C84S/C102S (Streptococcus pneumoniae D39); assay: SEC
[6] = biological target: Streptococcus pneumoniae SifR C102S (Streptococcus pneumoniae D39); assay: SEC
SifR WT [7] = biological target: T4, SifR WT (Streptococcus pneumoniae D39, UniProt A0A0H2ZNG7 1-145); assay: fluorescence anisotropy competition; reduced, 2 mM TCEP; competitor of F-catE; 25 mM Tris-HCl, 150 mM NaCl, 2 mM EDTA, 2 mM TCEP, pH 7.5, 25 C, ~10 nM labeled DNA (Fig S8: 50 mM Tris-HCl, 150 mM NaCl, pH 7.4, 25 C; NMR: 25 mM MES pH 6.5, 150 mM NaCl, 25 C); details: protein: recombinant; tags: His6 removed by TEV; tag-free; chain copies: 2; blunt
15N-SifR WT = 15N-SifR WT (Streptococcus pneumoniae D39, UniProt A0A0H2ZNG7 1-145); assay: NMR (1H,15N-TROSY); reduced; pH 6.5; 25 mM Tris-HCl, 150 mM NaCl, 2 mM EDTA, 2 mM TCEP, pH 7.5, 25 C, ~10 nM labeled DNA (Fig S8: 50 mM Tris-HCl, 150 mM NaCl, pH 7.4, 25 C; NMR: 25 mM MES pH 6.5, 150 mM NaCl, 25 C); details: protein: recombinant; tags: His6 removed by TEV; 15N-labeled; chain copies: 2
SifR WT [8] = biological target: T4, SifR WT; assay: fluorescence anisotropy; reduced, 2 mM TCEP; 25 mM Tris-HCl, 150 mM NaCl, 2 mM EDTA, 2 mM TCEP, pH 7.5, 25 C, ~10 nM labeled DNA (Fig S8: 50 mM Tris-HCl, 150 mM NaCl, pH 7.4, 25 C; NMR: 25 mM MES pH 6.5, 150 mM NaCl, 25 C); details: protein: recombinant; tags: His6 removed by TEV; tag-free; chain copies: 2; label: 5'-fluorescein; blunt
SifR C84S = SifR C84S (Streptococcus pneumoniae D39, UniProt A0A0H2ZNG7 1-145, C84S); assay: as above; details: protein: recombinant; tags: His6 removed by TEV; tag-free; chain copies: 2; label: 5'-fluorescein; blunt

Molecule: CN1CC(O)C2=CC(=O)C(=O)C=C21 (stereo not drawn) [Adc, adrenochrome]
- LC-ESI-MS and tandem LC-MS/MS adduct; fluorescence anisotropy DNA release (SifR (SpSifR, SPD_1448)): Adc reacts more slowly to yield some monoadducted product

Molecule: Cc1cc2nc3c(=O)[nH]c(=O)nc-3n(C[C@H](O)[C@H](O)[C@H](O)COP(=O)(O)O)c2cc1C [FMN]
- ferric reductase, ferrozine capture at 562 nm (YhdA (SpYhdA, SPD_1375)): SpYhdA has significant activity and prefers FMN over FAD

Molecule: NC[C@H](O)c1ccc(O)c(O)c1 [NE, norepinephrine]
- UV-Vis and MS of ring-cleavage product (CatE (SpCatE, SPD_0072) [1]): SpCatE can utilize each of these compounds as substrates

Molecule: Oc1ccccc1O [catechol]
- UV-Vis at 375 nm and MS of ring-cleavage product (CatE (SpCatE, SPD_0072) [2]): we first monitored its activity using UV–Vis spectroscopy against freshly prepared catechol

Molecule: Streptococcus pneumoniae SifR (streptococcal IscR-like family transcriptional repressor), WT (natural protein)
- stoichiometry N [3]: 2

Molecule: Streptococcus pneumoniae SifR C84S (natural protein)
- stoichiometry N [4]: 2

Molecule: Streptococcus pneumoniae SifR C84S/C102S (natural protein)
- stoichiometry N [5]: 2

Molecule: Streptococcus pneumoniae SifR C102S (natural protein)
- stoichiometry N [6]: 2

B1: fre O/P (dsDNA)
DNA 1: GATAAAATGTAACAAATTTATTTACAACAAATC
DNA 2: GATTTGTTGTAAATAAATTTGTTACATTTTATC
- Ka (SifR WT [7]): 0.25 ± 0.05 10^8 M-1

B2: fre operator 23 bp (dsDNA)
DNA 1: AATGTAACAAATTTATTTACAAC
DNA 2: GTTGTAAATAAATTTGTTACATT
- binding result (15N-SifR WT): binds

B3: trxB O/P (dsDNA)
DNA 1: GAAAGAGTTAGAATAAAGATAGTTACAACAAG
DNA 2: CTTGTTGTAACTATCTTTATTCTAACTCTTTC
- Ka (SifR WT [7]): 0.13 ± 0.04 10^8 M-1

B4: ywnB O/P (dsDNA)
DNA 1: CAATTGCTGTAACTAAAATAATTACAACAAG
DNA 2: CTTGTTGTAATTATTTTAGTTACAGCAATTG
- Ka (SifR WT [7]): 3.2 ± 0.4 10^8 M-1

B5: yhdA O/P (dsDNA)
DNA 1: GTTTTGTTGTAATATATTTTATAACAACGAG
DNA 2: CTCGTTGTTATAAAATATATTACAACAAAAC
- Ka (SifR WT [7]): 0.23 ± 0.04 10^8 M-1

B6: F-catE O/P (dsDNA)
DNA 1: TATAGTTGTAATAATAATAATTACAACGAG
DNA 2: CTCGTTGTAATTATTATTATTACAACTATA
modifications: fluorescein-dT at 5' position 1 of strand 1
- Ka (SifR WT [8]): 1 ± 0.2 10^8 M-1
- Ka (SifR C84S): 4.8 ± 1.5 10^8 M-1
